Laboratory results published in patent US20250011363A1, “OPTIMIZED SHORTENED PEPTIDE THAT BINDS TO ACETYLCHOLINE RECEPTOR, AND USE THEREOF” (SKINMED CO., LTD., priority 2021, published 2025).

B1: 6mer-1-799 (peptide)
peptide: RRKKKR
B2: 6mer-1-800 (peptide)
peptide: RREHIR
B3: 6mer-1-801 (peptide)
peptide: KKCAVK
B4: 6mer-1-802 (peptide)
peptide: RKYHGR
B5: 6mer-1-803 (peptide)
peptide: RKMKHK
B6: 6mer-1-804 (peptide)
peptide: KRDPFR
B7: 6mer-1-805 (peptide)
peptide: KRDTMK
B8: 6mer-1-806 (peptide)
peptide: RKKTIR
B9: 6mer-1-807 (peptide)
peptide: RRDKNR
B10: 6mer-1-808 (peptide)
peptide: RRFEKK
B11: 6mer-1-809 (peptide)
peptide: KKKSNR
B12: 6mer-1-810 (peptide)
peptide: RKCNAR
B13: 6mer-1-811 (peptide)
peptide: KRHCHK
B14: 6mer-1-812 (peptide)
peptide: RKDHMK
B15: 6mer-1-813 (peptide)
peptide: RREDFK
B16: 6mer-1-814 (peptide)
peptide: KKCNAK
B17: 6mer-1-815 (peptide)
peptide: RRFEMR
B18: 6mer-1-816 (peptide)
peptide: RKIDFK
B19: 6mer-1-817 (peptide)
peptide: RRIMKR
B20: 6mer-1-818 (peptide)
peptide: RKIKAR
B21: 6mer-1-819 (peptide)
peptide: KRMHAK
B22: 6mer-1-820 (peptide)
peptide: KRNDGK
B23: 6mer-1-821 (peptide)
peptide: RRTTNR
B24: 6mer-1-822 (peptide)
peptide: KREPIK
B25: 6mer-1-823 (peptide)
peptide: KRHTGK
B26: 6mer-1-824 (peptide)
peptide: KKMNIK
B27: 6mer-1-825 (peptide)
peptide: RKEKWK
B28: 6mer-1-826 (peptide)
peptide: KKAHMR
B29: 6mer-1-827 (peptide)
peptide: RKKKFR
B30: 6mer-1-828 (peptide)
peptide: RRPNMK
B31: 6mer-1-829 (peptide)
peptide: RRIHKK
B32: 6mer-1-830 (peptide)
peptide: KKTTMK
B33: 6mer-1-831 (peptide)
peptide: KKNPWK
B34: 6mer-1-832 (peptide)
peptide: RKYWGK
B35: 6mer-1-833 (peptide)
peptide: RRYKNR
B36: 6mer-1-834 (peptide)
peptide: KRNTIR
B37: 6mer-1-835 (peptide)
peptide: KRTADK
B38: 6mer-1-836 (peptide)
peptide: RRCMIK
B39: 6mer-1-837 (peptide)
peptide: KRDHAK
B40: 6mer-1-838 (peptide)
peptide: KRNTWK
B41: 6mer-1-839 (peptide)
peptide: KRNWAK
B42: 6mer-1-840 (peptide)
peptide: RKICNK
B43: 6mer-1-841 (peptide)
peptide: KKDAPR
B44: 6mer-1-842 (peptide)
peptide: RRFANK
B45: 6mer-1-843 (peptide)
peptide: KKKTIK
B46: 6mer-1-844 (peptide)
peptide: KKPMNR
B47: 6mer-1-845 (peptide)
peptide: KKIDKK
B48: 6mer-1-846 (peptide)
peptide: RKDAEK
B49: 6mer-1-847 (peptide)
peptide: KKYNHK
B50: 6mer-1-848 (peptide)
peptide: RKTMFK
B51: 6mer-1-849 (peptide)
peptide: KKFNWK
B52: 6mer-1-850 (peptide)
peptide: RRNPEK
B53: 6mer-1-851 (peptide)
peptide: RRYMEK
B54: 6mer-1-852 (peptide)
peptide: KRASVK
B55: 6mer-2-775 (peptide)
peptide: KMSMKK
B56: 6mer-2-776 (peptide)
peptide: RFPWRK
B57: 6mer-2-777 (peptide)
peptide: KNDVRR
B58: 6mer-2-778 (peptide)
peptide: RNAPKK
B59: 6mer-2-779 (peptide)
peptide: KAAHRR
B60: 6mer-2-780 (peptide)
peptide: KITIRK
B61: 6mer-2-781 (peptide)
peptide: KTMNRK
B62: 6mer-2-782 (peptide)
peptide: KPWPKR
B63: 6mer-2-783 (peptide)
peptide: RDMVRK
B64: 6mer-2-784 (peptide)
peptide: KAEWRK
B65: 6mer-2-785 (peptide)
peptide: RHCHRR
B66: 6mer-2-786 (peptide)
peptide: RMEMRK
B67: 6mer-2-787 (peptide)
peptide: RIWHKK
B68: 6mer-2-788 (peptide)
peptide: KKEKKK
B69: 6mer-2-789 (peptide)
peptide: KNENRK
B70: 6mer-2-790 (peptide)
peptide: RCAGRR
B71: 6mer-2-791 (peptide)
peptide: KNMNRK
B72: 6mer-2-792 (peptide)
peptide: RAEDKR
B73: 6mer-2-793 (peptide)
peptide: RMHKKR
B74: 6mer-2-794 (peptide)
peptide: KAEMRR
B75: 6mer-2-795 (peptide)
peptide: RTHNKR
B76: 6mer-2-796 (peptide)
peptide: RMMARR
B77: 6mer-2-797 (peptide)
peptide: RHCIKR
B78: 6mer-2-798 (peptide)
peptide: RDTPKK

What follows are binders tested against acetylcholine receptor (assay: SPR, AchR immobilized on CM5 chip, peptide at 10 uM).

Binder | Binding affinity (RU)
B1 | 30
B2 | 15
B3 | 18
B4 | 32
B5 | 31
B6 | 31
B7 | 24
B8 | 12
B9 | 13
B10 | 24
B11 | 12
B12 | 12
B13 | 16
B14 | 26
B15 | 15
B16 | 15
B17 | 23
B18 | 14
B19 | 16
B20 | 14
B21 | 17
B22 | 12
B23 | 22
B24 | 17
B25 | 12
B26 | 12
B27 | 30

Binder | Binding affinity (RU)
B28 | 31
B29 | 30
B30 | 26
B31 | 25
B32 | 33
B33 | 15
B34 | 12
B35 | 19
B36 | 17
B37 | 26
B38 | 22
B39 | 19
B40 | 17
B41 | 29
B42 | 12
B43 | 30
B44 | 11
B45 | 28
B46 | 28
B47 | 23
B48 | 28
B49 | 20
B50 | 19
B51 | 21
B52 | 29
B53 | 30
B54 | 19

Each binder was assayed against acetylcholine receptor (assay: SPR, AchR immobilised on CM5 chip, peptide 10 uM).

Binder | Binding affinity (RU)
B55 | 26
B56 | 12
B57 | 31
B58 | 21
B59 | 13
B60 | 31
B61 | 28
B62 | 18
B63 | 32
B64 | 26
B65 | 31
B66 | 30
B67 | 19
B68 | 30
B69 | 24
B70 | 23
B71 | 27
B72 | 13
B73 | 29
B74 | 19
B75 | 16
B76 | 32
B77 | 19
B78 | 17
